In the Human Domainome abundance scans (Beltran et al. 2025):
± gives the uncertainty stated by the source.

B1: Homeobox protein SIX3, residues 212 to 262; numbered along this chain, O95343 (parent)
chain: CFKERTRSLLREWYLQDPYPNPSKKRELAQATGLTPTQVGNWFKNRRQRDR

Variants of: B1
Assay: abundance fitness (aPCA) (normalised: wild type 0, dead -1); higher = more abundant; growth selection in yeast, the domain comes from the species named
Details: Homo sapiens

Compared with P36E, P36T is lower in abundance fitness: 0.066 ± 0.046 for the first, -0.066 ± 0.072 for the second.

Compared with P36C, P36G is lower in abundance fitness: -0.241 ± 0.051 for the first, -0.596 ± 0.043 for the second.

Going from P36A to P36M, the abundance fitness rises from -0.226 ± 0.09 to 0.03 ± 0.074.

Going from P36D to P36K, the abundance fitness rises from -0.638 ± 0.19 to -0.048 ± 0.074.

First: P36N
Second: P36S
The abundance fitness of the first is lower: -0.815 ± 0.34 for the first, -0.274 ± 0.07 for the second.

Compared with P36R, P36W is lower in abundance fitness: -0.307 ± 0.049 for the first, -0.536 ± 0.1 for the second.

First: P36L
Second: P36F
The abundance fitness of the first is lower: -0.087 ± 0.062 for the first, 0.184 ± 0.075 for the second.

P36H and P36Q are within error of each other in abundance fitness: -0.305 ± 0.13 for the first, -0.235 ± 0.12 for the second.

Compared with P36I, V39T is lower in abundance fitness: -0.096 ± 0.11 for the first, -0.573 ± 0.1 for the second.

V39S and V39A are within error of each other in abundance fitness: -0.916 ± 0.083 for the first, -0.829 ± 0.088 for the second.

V39Y and V39K are within error of each other in abundance fitness: -0.897 ± 0.28 for the first, -0.945 ± 0.19 for the second.

V39L and V39P are within error of each other in abundance fitness: -0.84 ± 0.08 for the first, -0.972 ± 0.12 for the second.

V39R and V39G are within error of each other in abundance fitness: -0.873 ± 0.064 for the first, -0.731 ± 0.083 for the second.

V39C and V39Q are within error of each other in abundance fitness: -0.969 ± 0.37 for the first, -0.78 ± 0.067 for the second.

V39N and V39F are within error of each other in abundance fitness: -1.01 ± 0.24 for the first, -0.848 ± 0.25 for the second.

V39D and V39H are within error of each other in abundance fitness: -0.893 ± 0.074 for the first, -0.998 ± 0.32 for the second.

First: V39E
Second: T35L
The abundance fitness of the first is lower: -0.96 ± 0.099 for the first, -0.778 ± 0.069 for the second.

T35Y and T35V are within error of each other in abundance fitness: -0.826 ± 0.12 for the first, -0.842 ± 0.05 for the second.

T35C and T35P are within error of each other in abundance fitness: -0.645 ± 0.12 for the first, -0.894 ± 0.15 for the second.

T35R and T35A are within error of each other in abundance fitness: -0.704 ± 0.045 for the first, -0.861 ± 0.13 for the second.

First: T35D
Second: T35Q
The abundance fitness of the first is lower: -0.697 ± 0.096 for the first, -0.252 ± 0.21 for the second.

T35W and T35K are within error of each other in abundance fitness: -0.848 ± 0.17 for the first, -0.726 ± 0.14 for the second.

T35M and T35F are within error of each other in abundance fitness: -0.715 ± 0.067 for the first, -0.77 ± 0.37 for the second.

Going from T35S to T35G, the abundance fitness falls from -0.044 ± 0.055 to -0.827 ± 0.063.

Compared with T35N, T35E is lower in abundance fitness: -0.259 ± 0.13 for the first, -0.809 ± 0.16 for the second.

T35H and Q38T are within error of each other in abundance fitness: -0.763 ± 0.41 for the first, -0.43 ± 0.15 for the second.

Q38L and Q38H are within error of each other in abundance fitness: -0.64 ± 0.052 for the first, -0.81 ± 0.23 for the second.

Going from Q38V to Q38S, the abundance fitness falls from -0.418 ± 0.058 to -0.676 ± 0.077.

Q38P and Q38N are within error of each other in abundance fitness: -1.13 ± 0.18 for the first, -0.728 ± 0.24 for the second.

Q38I and Q38D are within error of each other in abundance fitness: -0.733 ± 0.31 for the first, -0.937 ± 0.38 for the second.

Q38E and Q38G are within error of each other in abundance fitness: -0.606 ± 0.19 for the first, -0.761 ± 0.1 for the second.

Q38A and Q38C are within error of each other in abundance fitness: -0.338 ± 0.068 for the first, -0.393 ± 0.15 for the second.

Q38F and Q38M are within error of each other in abundance fitness: -0.663 ± 0.43 for the first, -0.619 ± 0.09 for the second.

Q38K and Q38W are within error of each other in abundance fitness: -0.886 ± 0.2 for the first, -0.774 ± 0.081 for the second.

Going from Q38R to G33R, the abundance fitness rises from -0.802 ± 0.067 to -0.613 ± 0.057.

G33T and G33V are within error of each other in abundance fitness: -0.766 ± 0.17 for the first, -0.779 ± 0.077 for the second.

First: G33Y
Second: G33S
The abundance fitness of the first is lower: -0.978 ± 0.28 for the first, -0.555 ± 0.052 for the second.

F43C and F43E are within error of each other in abundance fitness: -0.755 ± 0.096 for the first, -0.883 ± 0.16 for the second.

F43N and F43G are within error of each other in abundance fitness: -0.621 ± 0.24 for the first, -0.956 ± 0.11 for the second.

F43K and F43H are within error of each other in abundance fitness: -0.92 ± 0.16 for the first, -0.82 ± 0.28 for the second.

F43A and F43D are within error of each other in abundance fitness: -0.96 ± 0.22 for the first, -0.816 ± 0.35 for the second.

F43I and F43L are within error of each other in abundance fitness: -0.679 ± 0.47 for the first, -0.97 ± 0.15 for the second.

First: F43M
Second: G40T
The abundance fitness of the first is lower: -0.782 ± 0.18 for the first, -0.183 ± 0.089 for the second.

First: G40E
Second: G40R
The abundance fitness of the first is lower: -0.099 ± 0.049 for the first, 0.008 ± 0.048 for the second.

G40L and G40Y are within error of each other in abundance fitness: -0.731 ± 0.078 for the first, -0.871 ± 0.23 for the second.

Compared with G40F, G40C is higher in abundance fitness: -0.858 ± 0.13 for the first, -0.13 ± 0.085 for the second.

G40D and G40I are within error of each other in abundance fitness: -0.227 ± 0.062 for the first, -0.247 ± 0.15 for the second.

Compared with G40A, G40W is lower in abundance fitness: -0.146 ± 0.063 for the first, -0.81 ± 0.052 for the second.

G40S and G40N are within error of each other in abundance fitness: 0.006 ± 0.06 for the first, 0.131 ± 0.099 for the second.

Compared with G40K, G40M is lower in abundance fitness: 0.097 ± 0.05 for the first, -0.621 ± 0.12 for the second.

Going from G40V to G40H, the abundance fitness rises from -0.6 ± 0.076 to -0.122 ± 0.11.

N41G and N41A are within error of each other in abundance fitness: -0.55 ± 0.12 for the first, -0.496 ± 0.2 for the second.

N41C and N41M are within error of each other in abundance fitness: -0.459 ± 0.17 for the first, -0.286 ± 0.12 for the second.

Going from N41Q to N41R, the abundance fitness rises from -0.402 ± 0.12 to 0.142 ± 0.065.

N41D and N41L are within error of each other in abundance fitness: -0.497 ± 0.2 for the first, -0.516 ± 0.12 for the second.

First: N41I
Second: N41S
The abundance fitness of the first is lower: -0.627 ± 0.24 for the first, -0.204 ± 0.1 for the second.

Compared with N41K, N41H is lower in abundance fitness: 0.252 ± 0.093 for the first, -0.168 ± 0.16 for the second.

N41V and N41P are within error of each other in abundance fitness: -0.325 ± 0.12 for the first, -0.614 ± 0.29 for the second.

Going from T37D to T37H, the abundance fitness falls from 0.326 ± 0.081 to -0.099 ± 0.074.

Going from T37L to T37A, the abundance fitness rises from -0.255 ± 0.045 to -0.11 ± 0.072.

Going from T37V to T37P, the abundance fitness falls from -0.091 ± 0.075 to -0.416 ± 0.096.

First: T37F
Second: T37I
The abundance fitness of the first is lower: -0.678 ± 0.19 for the first, -0.184 ± 0.044 for the second.

Compared with T37G, T37Q is higher in abundance fitness: -0.126 ± 0.047 for the first, 0.211 ± 0.078 for the second.

T37N and T37S are within error of each other in abundance fitness: -0.27 ± 0.12 for the first, -0.186 ± 0.068 for the second.

Going from T37W to T37M, the abundance fitness rises from -0.441 ± 0.074 to -0.055 ± 0.091.

Compared with T37E, T37C is lower in abundance fitness: 0.164 ± 0.065 for the first, -0.051 ± 0.094 for the second.

Compared with T37R, L34K is lower in abundance fitness: 0.014 ± 0.058 for the first, -0.56 ± 0.089 for the second.

Compared with L34S, L34V is lower in abundance fitness: -0.623 ± 0.089 for the first, -0.881 ± 0.11 for the second.

L34F and L34Q are within error of each other in abundance fitness: -0.823 ± 0.13 for the first, -0.634 ± 0.15 for the second.

Going from L34D to L34M, the abundance fitness rises from -0.798 ± 0.2 to -0.186 ± 0.093.

L34G and L34C are within error of each other in abundance fitness: -0.72 ± 0.086 for the first, -0.834 ± 0.093 for the second.

L34W and L34Y are within error of each other in abundance fitness: -0.606 ± 0.097 for the first, -0.778 ± 0.14 for the second.

L34A and L34N are within error of each other in abundance fitness: -0.72 ± 0.097 for the first, -0.918 ± 0.18 for the second.

L34I and L34T are within error of each other in abundance fitness: -0.445 ± 0.082 for the first, -0.73 ± 0.21 for the second.

L34P and L34R are within error of each other in abundance fitness: -0.75 ± 0.21 for the first, -0.847 ± 0.065 for the second.

L34H and W42C are within error of each other in abundance fitness: -0.502 ± 0.33 for the first, -0.901 ± 0.36 for the second.

W42G and W42S are within error of each other in abundance fitness: -0.85 ± 0.098 for the first, -1.06 ± 0.27 for the second.

Compared with W42Q, W42Y is higher in abundance fitness: -0.854 ± 0.083 for the first, -0.398 ± 0.05 for the second.

W42F and W42V are within error of each other in abundance fitness: -0.764 ± 0.3 for the first, -0.986 ± 0.078 for the second.

W42D and W42I are within error of each other in abundance fitness: -0.722 ± 0.29 for the first, -0.897 ± 0.42 for the second.

W42A and W42K are within error of each other in abundance fitness: -0.793 ± 0.052 for the first, -0.871 ± 0.32 for the second.

Going from W42T to W42E, the abundance fitness falls from -0.461 ± 0.21 to -0.893 ± 0.098.

W42R and W42H are within error of each other in abundance fitness: -0.933 ± 0.079 for the first, -0.702 ± 0.34 for the second.

For W42P, the abundance fitness was -1 ± 0.14.
